Molecular target: T1, Soluble CTLA-4-Ig (extracellular domain of human CTLA-4 fused to the Fc portion of human IgG1) (human, UniProt P16410 36-161, FITC-conjugated in the FACS binding assays)
T1 construct: extracellular domain; bought from R&D Systems; also called sCTLA-4-Ig; CTLA-4-Ig Fc; not shown: Fc portion of human IgG1
Test: competitive FACS on transfected cells, FITC-sCTLA-4-Ig with biotin-sCD28-Ig; grade 0-2 of CTLA-4/CD28 ratio vs WT hB7-1

T1 sequence (P16410 36-161): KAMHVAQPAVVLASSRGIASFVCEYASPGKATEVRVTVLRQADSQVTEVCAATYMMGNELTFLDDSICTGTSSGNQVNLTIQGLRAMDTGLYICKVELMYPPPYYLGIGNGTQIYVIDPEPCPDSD

Binder	Binding Score
Round 1 (R1) CTLA4BP-5 (ligand, also called R1-5) VIHVTKEVKEVATLSCGHNVSVEELAQTRIHWQKEKKMVLTMMSGDMNIWPEYKNRTIFDITNNLSIVILALRPSDEGTYECVVLKYEKDAFKREHLAEVTLSVKADFPTPSISDFEIPPSNIRRIICSTSGGFPEPHLSWLENGEELNAINTTVSQDPGTELYTVSSKLDFNMTTNHSFMCLIKYGHLRVNQTFNWNTPKQEHFPDNLLPSWAITLISVNGIFVICCLTYCFAPRCRERRRNERLRRESVRPV	2
Round 2 CTLA4BP 2x1-g8 (ligand) VIHVTKEVKEVATLSCGHNVSVEELAQTRIHWQKEKKMVLTMMSGDMNIWPEYKNRTIFDITNNLSVVILALRPSDEGTYECVVLKYEKDAFKREHLAEVTLSVKADFPTPSITDFEIPPSNIRRIICSTSGGFPEPHLSWLENGEELNAINTTVSQDPGTELYTVSSKLDFNMTTNRSFVCLIKYGHLRVNQTFNWNTPKQEHFPDNLLPSWAITLISVNGIFVICCLTYCFAPRCRERKSNERLRRESVRPV	1
Round 2 CTLA4BP 2x1-f10 (ligand) VIHVTKEVKEVATLSCGHNVSVEELAQTRIHWQKEKKMVLTMMSGDMNIWPEYKNRTIFDITNNLSIVILALRPSDEGTYECVVLKYEKDAFKREHLAEVMLSVKADFPTPSITDFEIPPSNIRRIICSTSGGFPEPRLAWMEDGEELNAINTTVSQDPGTELYAVSSKLDFNMTTNHSFMCLIKYGHLRVNQTFNWNTPKQEHFPDNLLPSWAITLISVNGISVICCLTYCFAPRCRERRRNERLRRESVCPV	1
Round 2 CTLA4BP 2x2-f12 (ligand) VIHVTKEVKEVATLSCGHNVSVEELAQTRIHWQKEKKMVLTMMSGDMNIWPEYKNRTIFDITNNLSIVILALRPSDEGTYGCVVLEYEKDAFKREHLAEVMLSVKADFPTPSISDFEIPPSNIRRIICSTSGGFPEPHLSWLENGEELNAINTTVSQDPETELYAVSSKLDFNMTTNHSFMCLIKYGHLRANQTFNWNTPKQEHFPDNLLPSWAITLISVNGIFVICCLTYCFAPRCRERRRNERLRRESVRPV	1
Round 2 CTLA4BP 2x1-b12 (ligand) VIHMTKEVKEVATLSCGHNVSVEELAQTRIYWQKEKKMVLTMMSGDMNIWPEYKNRTIFDITNNLSIVILALRPSDEGTYECVALKYEKDAFKQEHLAEVTLSVKADFPTPSISDFEIPPSNIRRIICSTSGGFPEPRLAWMEDGEELNAINTTVSQDPETELYTVSSKLDFNMTANHSFMCLIKYGHLRVNQTFNWNTPKQEHFPDNLLPSWAITLISVNGIFVICCLTYCFAPRCRERRRNERLRRESVCPV	1
Round 2 CTLA4BP 5x2-b7 (ligand) VIHVTKEVKEVATLSCGHNVSVEELAQTRIHWQKEKKMVLTMMSGDMNIWPEYKNRTIFDITNNLSIVILALRPSDEGTYECVVLKYEKDAFKREHLAEVTLSVKADFPTPSITDFEIPPSNIRRIICSTSGGFPEPHLSWLENGEELNAINTTVSQDPGTELYTVSSKLDFNMTANHSFVCLIKYGHLRVNQTFNWNTPKQEHFPDNLLPSWAITLISANGIFVICCLTYCFAPRCRERRRNERLRRESVRPV	1
Round 2 CTLA4BP 5x2-d7 (ligand) VIHMTKEVKEVATLSCGLNVSVEELAQTRIHWQKEKKMVLTMMSGDMNIWPEYKNRTIFDITNNLSIVILALRPSDEGTYECVVLKYEKDAFKREHLAEVMLSVKADFPTPSISDFEIPPSNIRRIICSTSGGFPEPHLSWLENGEELNAINTTVSQDPETGLYTVSSKLDFNMTTNHSFMCLIKYGHLRVNQTFNWNTPKQEHFPDNLLPSWAITLISVNGIFVICCLTYCFAPRCRERRRNERLRRESVRPV	1
Round 2 CTLA4BP 5x1-d7 (ligand) VIHVTKEVKEVATLSCGHNVPVEELAQTRIYWQKEKKMVLTMMSGDMNIWPEYKNRTIFDITNNLSIVILALRPSDEGTYGCVVLEYEKDAFKREHLAEVMLSVKADFPTPSITDLEIPPSNIRRIICSTSGGFPEPHLFWLENGEELNAINTTASQDPETELYAVSSKLDFNMTTNHSFMCLIKYGHLRVNQTFNWNTPKQEHFPDNLLPSWAITLISANGIFVICCLTYCFAPRCRERRRNERLRRESVHPV	1
Round 2 CTLA4BP 2x1-c4 (ligand) VIHVTKEVKEVATLPCGHNVSVEELAQTRIHWQKEKKMVLTMMSGDMNIWPEYKNRTIFDITNNLSIVILALRPSDEGTYECVVLKYEKDAFKREHLAEVMLSVKADFPTPSITDFEIPPSNIRRIICSTSGGFPEPHLFWLENGEELNAINTTVSQDPGTELYAVSSKLDFNMTTNHNFMCLIKYGHLRVNQTFNWNTPKQEHFPDNLLPSWAITLISVNGIFVICCLTYCFAPRCRERRRNERLRRESVRPV	1
Round 1 CTLA4BP-27 (ligand, also called R1-27; R1 CTLA-4BP-27) VIHVTKEVKEVATLSCGLNVSVEELAQTRIYWQKEKKMVLTMMSGDMNIWPEYKNRTIFDITNNLSIVILALRPSDEGTYECVVLKYEKDAFKREHLAEVMLSVKADFPTPSISDFEIPPSNIRRIICSTSGGFPEPHLSWLENGEELNAINTTVSQDPETELYTVSSKLDFNMTANHSFVCLIKYGHLRVNQTFNWNTPKQEHFPDNLLPSWAITLISVNGIFVICCLTYCFAPRCRERRRNETLRRESVRPV	1
Round 2 CTLA4BP 2x2-f1 (ligand) VIHVTKEVKEVATLSCGHNVSVEELAQTRIHWQKEKKMVLTMMSGDMNIWPEYKNRTIFDITNNLSIVILALRLSDEGTYECVVLKYEKDAFKREHLAEVTLSVKADFPTPSISDFEIPTSNIRRIICSTSGGFPEPHLFWLENGEELNAINTTASQDPETELYTVSSKLDFNMTTNRSFVCLIKYGHLRVNQTFNWNTPKQEHFPDNLLPSWAITLISVNGIFVICCLTYCFAPRCRERRRNERLRRESVRPV	1
Round 2 CTLA4BP 2x4-h11 (ligand) VIHVTKEVKEVATLSCGHNVSVEELAQTRIYWQKEKKMVLTMMSGDMNIWPEYKNRTIFDITNNLSIVILALRPSDEGTYECVVLEYEKDAFKREHLAEVMLSVKADFPTPSISDFEIPPSNIRRIICSTSGGFPEPHLSWLENGEELNAINTTVSQDPGTELYAVSSKLDFNMTTNHSFMCLIKYGHLRVNQTFNWNTPKQEHFPDNLLPSWAITLISVNGIFVICCLAYCFAPRCRGRRRNERLRRESVRPV	0
Round 1 CTLA4BP-11 (ligand, also called R1-11; R1 CTLA-4BP-11) VIHMTKEVKEVATLSCGHNVSVEELAQTRIYWQKEKKMVLTMMSGDMNIWPEYKNRTIFDITNNLSIVILALRPSDEGTYECVVLKYEKDAFKREHLAEVMLSVKADFPTPSITDFEIPPSNIRRIICSTSGGFPEPHLFWLENGEELNAINTTVSQDPETELYAVSSKLDFNMTTNHSFMCLIKYGHLRVNQTFNWNTTKQEHFPDNLLPSWAITLISVNGIFVICCLTHCFAPRCRERRRNERLRRESVHPV	1
Round 2 CTLA4BP 5x1-f1 (ligand) VIHVTKEVKEVATLSCGLNVSVEELAQTRIYWQKEKKMVLTMMSGDMNIWPEHKNRTIFDITNNLSIVILALRPSDEGTYECVVLKYEKDAFKREHLAEVTLSVKADFPTPSITDFEIPPSNIRRIICSTSGGFPEPHLFWLENGEELNAINTTASQDPETELYTVSSKLDFNMTANHSFVCLIKYGHLRVNQTFNWNTPKQEHFPDNLLPSWAITLISVNGIFVICCLTYCFAPRCRERRRNETLRRESVRPV	1
Round 2 CTLA4BP 2x1-h12 (ligand) VIHVTKEVKEVATLSCGLNVSVEELAQTRIHWQKEKKMVLTMMSGDMNIWPEYKNRTIFDITNNLSIVILALRPSDEGTYECVVLKYEKDAFKREHLAEVMLSVKADFPTPSITDFEIPPSNIRRIICSTSGGFPEPHLSWLENGEELNAINTTVSQDPGTELYTVSSKLDFNMTTNHSFMCLIKYGHLRVNQTFNWNTPKQEHFPDNLLPSWAITLISANGIFVICCLTYCFAPRCRERKSNERLRRESVCPV	1
Round 1 CTLA4BP-13 (ligand, also called R1-13; R1 CTLA-4BP-13) VIHVTKEVKEVATLSCGHNVSVEELAQTRIYWQKEKKMVLTMMSGDMNIWPEYKNRTIFDITNNLSIVILALRPSDEGTYECVVLKYEKDAFKREHLAEVTLSVKADFPTPSISDFEIPTSNIRRIICSTSGGFPEPHLFGLENGEEINAINTTASQDPETELYTVSSKLDFNMTPNRSFVCLIKYGHLRVNQTFNWNTPKQEHFPDNLLPSWAITLISANGIFVICCLTYCFAPRCRERKSNERLRRESVRPV	1
Round 2 CTLA4 A-B11-5 (ligand) ITPKSATKRVKETVMLSCDYSTSTEELTSLRIYWQKDSKMVLAILPGKVQVWPEYKNRTITDMNDNPRIVILALRLSDSGTYTCVIQKPDLKGAYKLEHLTSVRLMIRADFPVPTINDLGNPSPNIRRLICSTSGGFPRPHLYWLENGEELNATNTTLSQDPETKLYMISSELDFNMTSNHSFLCLVKYGDLTVSQTFYWQESKPTPSANQHLTWTIIIPVSAFGISVIIAVILTCLTCRNAAIRRQRRENEVEMQSCSQSP	1
Round 2 CTLA4 A-F6-9 (ligand) ITPKSVTKRVKETVMLSCDYSTSTEELTSLRIYWQKDSKMVLAILPGKVQVWPEYKNRTITDMNDNPRIVILALRLSDSGTYTCVIQKPDLKGAYKLEHLTSVRLMIRADFPVPTINDLGNPSPNIRRLICSTSGGFPRPHLYWLENGEELNATNTTLSQDPETKLYMISSELDFNMTSNHSFLCLVKYGDLTVSQTFYWQESKPTPSANQHLTWTIIIPVSAFGISVIIAVILTCLTCRNAAIRRQRRENEVEMQSCSQSP	1
Round 2 CTLA4 A-G8-1 (ligand) ITPKSVTKRVKETVMLSCDYNTSTEELTSLRIYWQKDSKMVLAILPGKVQVWPEYKNRTITDMNDNPRIVILALPLSDSGTYTCVIQKPDLKGAYKLEHLTSVRLMIRADFPVPTINDLGNPSPNIRRLICSTSGGFPRPHLYWLENGEELNATNTTLSQDPETKLYMISSELDFNMTSNHSFLCLVKYGDLTVSQTFYWQESKPTPSANQHLTWTIIIPVSAFGISVIIAVILTCLTCRNAAIRRQRRENEVEMQSCSQSP	1
